Assay [1] deals with T1, human CD1b (human, UniProt P29016 18-333).
T1 construct: whole, on cells; also called C1R-CD1b; CR1-CD1b
As to the kind of experiment: flow cytometry on C1R-CD1b transfectant. As to the method: (§1) The human anti-CD1a IgG1 antibodies were validated for their ability to bind to CD1a transfected cell lines essentially as described for scFvs (see Example 3). The purified anti-CD1a antibodies were diluted to various concentrations (depicted in the figures) and detected with mouse anti-human IgGκ labeled with FITC or FITC-labeled streptavidin in the case of biotinylated human anti-CD1a antibodies. In addition to the cell lines C1R-CD1a and C1R mock transfected described in Example 3, the cell lines C1R-CD1b , C1R-CD1c , C1R-CD1d and B16-CD1a and B16 mock transfected were tested. Each staining was repeated three times and compared to the negative control irrelevant isotype control antibody called CR2027 using the Kolmogorov-Simov test. To calculate K-S statistics, an overlay of histograms of isotype control antibody and anti-CD1a antibody was made. The log shift between the peaks of the histograms was determined and used to calculate the D-value. The greater the log shift of the anti-CD1a antibody response peak from the isotype control antibody response peak, the larger the D-value.
(§2) No specific staining of any of the six human anti-CD1a monoclonal antibodies was detected on the C1R-CD1b or C1R-CD1d transfectants (see FIG. 4). Slight, but significant, staining (p<0.05) was detected for the two antibodies CR2114 and CR2117 on C1R-CD1c transfectants (see FIG. 4). […] In addition, staining was also carried out on freshly prepared mouse thymocytes, which express murine […] at low levels.

The target in assay [2] is T2, human CD1d (human, UniProt P15813 20-335).
T2 construct: whole, on cells; also called C1R-CD1d; CR1-CD1d
T2 sequence (looked up): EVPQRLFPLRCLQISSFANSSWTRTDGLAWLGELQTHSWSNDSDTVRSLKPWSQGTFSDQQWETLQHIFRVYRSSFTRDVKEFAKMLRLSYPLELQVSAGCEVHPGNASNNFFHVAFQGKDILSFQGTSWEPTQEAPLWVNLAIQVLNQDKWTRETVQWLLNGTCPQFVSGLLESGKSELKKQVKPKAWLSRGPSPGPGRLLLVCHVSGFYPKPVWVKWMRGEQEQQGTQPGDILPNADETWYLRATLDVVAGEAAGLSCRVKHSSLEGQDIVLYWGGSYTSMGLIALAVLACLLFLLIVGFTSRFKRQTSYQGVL
As to the kind of experiment: flow cytometry on C1R-CD1d transfectant. The method, then: as §1, §2
On the technique in general: In flow cytometry, cells or beads pass a laser one at a time.

Assay [3] has as its target T3, murine CD1d (mouse, UniProt P11609 22-336).
T3 construct: whole, on cells; also called mouse thymocytes
T3 sequence (looked up): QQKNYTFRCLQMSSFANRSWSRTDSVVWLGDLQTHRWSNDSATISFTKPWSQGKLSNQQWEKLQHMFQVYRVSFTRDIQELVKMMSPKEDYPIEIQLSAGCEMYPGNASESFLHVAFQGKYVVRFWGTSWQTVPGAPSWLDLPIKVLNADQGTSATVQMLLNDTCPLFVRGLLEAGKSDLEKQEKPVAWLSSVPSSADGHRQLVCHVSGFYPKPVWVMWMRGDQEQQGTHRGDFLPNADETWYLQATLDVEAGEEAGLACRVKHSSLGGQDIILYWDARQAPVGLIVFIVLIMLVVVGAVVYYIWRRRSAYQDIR
As to the kind of experiment: flow cytometry on freshly prepared mouse thymocytes.

The target of assay [4] is T4, murine CD1a (mouse).
T4 construct: whole, on cells; no such UniProt entry is known to me (mice are known to carry only CD1d genes); also called mouse thymocytes
Put plainly: flow cytometry on mouse thymocytes, K-S statistics against isotype control. The method, then: as §1, §2

For assay [5], the target named is T3, murine CD1d. The assay is described as above. The method, then:
as §1, §2

Assay [6] addresses T5, human CD1a (human, UniProt P06126 17-327).
T5 construct: whole, on cells; also called C1R-CD1a; CR1-CD1a
Put plainly: competition flow cytometry on B16-CD1a cells: unlabeled antibody for 30 min, then biotin-labeled CR2113 at 2.5 µg/ml, FITC-streptavidin. As to the method:
(§3) B16 mouse melanoma cells expressing human CD1a were stained with unlabeled CR2113, CR2114, CR2117, CR2118 or the negative control CR2027 at different concentrations (0.1, 0.3, 1, 3, 10, 30, 50, 100 μg/ml) for 30 minutes and then stained with one of the above antibodies labeled with biotin as described above for five minutes at a concentration of 2.5 μg/ml. Detection was by FITC-labeled streptavidin incubated for 20 minutes. Furthermore, staining was performed as described above (see Example 3). Each staining was done three successive times and the D-value calculated with K-S statistics (see above). The staining of unlabeled control antibody CR2027 is shown by the dotted line staining using the test antibody is depicted with a solid line. CR2113 was able to compete with itself in a dose dependent manner, however none of the other antibodies could compete with biotinylated CR2113 for binding (see FIG. 6A). […] In contrast, unlabeled CR2113 was able to compete for binding of CR2114 (see FIG. 6B), CR2117 (see FIG. 6C) and CR2118 (see FIG. 6D) to B16-CD1a transfectants in a concentration dependent manner. Neither CR2117 nor CR2118 was able to compete with CR2114 for binding to CD1a. This could be due to sub-optimal affinity.

Assay [7] addresses T5, human CD1a. Put plainly: competition flow cytometry on B16-CD1a cells: unlabeled antibody for 30 min, then biotin-labeled CR2114 at 2.5 µg/ml, FITC-streptavidin. As to the method: as §3
The target in assay [8] is T5, human CD1a. As to the kind of experiment: competition flow cytometry on B16-CD1a cells: unlabeled antibody for 30 min, then biotin-labeled CR2118 at 2.5 µg/ml, FITC-streptavidin. The method, then:
as §3

Assay [9] addresses T5, human CD1a. As to the kind of experiment: flow cytometry on B16-CD1a transfectants, biotinylated antibody detected with FITC-labeled streptavidin; D-value versus isotype control CR2027. The method, then: as §1
(§4) Binding curves were generated for the antibodies CR2113, CR2114, CR2117 and CR2118 by measuring binding on B16-CD1a transfected cells with FACS as above using the concentrations of antibody ranging from 0.01 to 10 μg/ml. […]

In assay [10] the target is T6, human CD1c (human, UniProt P29017 18-333).
T6 construct: whole, on cells; also called C1R-CD1c; CR1-CD1c
T6 sequence (looked up): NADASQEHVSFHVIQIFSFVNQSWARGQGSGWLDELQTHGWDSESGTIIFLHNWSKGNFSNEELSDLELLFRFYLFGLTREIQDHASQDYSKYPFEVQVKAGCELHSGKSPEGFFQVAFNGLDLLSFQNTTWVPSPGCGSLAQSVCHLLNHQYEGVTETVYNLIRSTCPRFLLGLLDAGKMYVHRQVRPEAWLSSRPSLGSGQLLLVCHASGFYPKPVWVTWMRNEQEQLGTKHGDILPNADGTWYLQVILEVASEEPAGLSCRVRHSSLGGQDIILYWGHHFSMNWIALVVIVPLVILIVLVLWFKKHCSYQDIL
Put plainly: flow cytometry on C1R-CD1c transfectant. As to the method: as §1
No specific staining of any of the six human anti-CD1a monoclonal antibodies was detected on the C1R-CD1b or C1R-CD1d transfectants (see FIG. 4). Slight, but significant, staining (p<0.05) was detected for the two antibodies CR2114 and CR2117 on C1R-CD1c transfectants (see FIG. 4). […]

Assay [11] deals with T5, human CD1a. Put plainly: flow cytometry on B16-CD1a transfectants, unlabeled antibody detected with FITC-labeled mouse anti-human IgG kappa; D-value versus isotype control CR2027. As to the method: as §1, §4

T5 sequence (P06126 17-327): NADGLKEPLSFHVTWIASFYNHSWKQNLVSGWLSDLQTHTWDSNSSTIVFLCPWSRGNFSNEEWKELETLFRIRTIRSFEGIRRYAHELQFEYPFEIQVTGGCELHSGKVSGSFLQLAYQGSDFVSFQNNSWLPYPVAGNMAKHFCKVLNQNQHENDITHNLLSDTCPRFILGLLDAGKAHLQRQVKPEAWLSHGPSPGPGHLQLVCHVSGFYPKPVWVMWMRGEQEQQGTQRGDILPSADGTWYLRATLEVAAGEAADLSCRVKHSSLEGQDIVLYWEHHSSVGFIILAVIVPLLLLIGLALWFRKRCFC
T1 sequence (P29016 18-333): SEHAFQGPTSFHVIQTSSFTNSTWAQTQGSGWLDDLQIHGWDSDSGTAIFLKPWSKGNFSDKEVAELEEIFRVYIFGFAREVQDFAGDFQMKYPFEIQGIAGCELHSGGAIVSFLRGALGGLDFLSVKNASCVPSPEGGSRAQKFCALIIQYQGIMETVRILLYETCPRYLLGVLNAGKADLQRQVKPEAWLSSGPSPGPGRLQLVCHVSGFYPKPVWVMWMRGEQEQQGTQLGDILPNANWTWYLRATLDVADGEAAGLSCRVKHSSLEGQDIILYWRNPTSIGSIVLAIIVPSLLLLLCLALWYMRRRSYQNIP

B1: human anti-human CD1a monoclonal antibody CR2113 (antibody, human IgG1, kappa, V domains shown)
VH: QVQLQESGAGLLKPSETLSLTCAVYGGSFSGYYWSWIRQPPGKGLEWIGYIYYSGSTNYNPSLKSRVTISVDTSKNQFSLKLSSVTAADTAVYYCAKAPYMMYFDSWGQGTLVTVSS
VL: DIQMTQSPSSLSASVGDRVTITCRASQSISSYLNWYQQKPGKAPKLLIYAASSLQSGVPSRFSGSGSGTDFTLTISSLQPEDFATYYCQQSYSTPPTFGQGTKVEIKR
notes: Fully human IgG1 kappa made from scFv SC02-113, expressed in 293T cells; Used unlabeled, biotinylated or Alexa488-labeled depending on the assay; also called 02-113
For the molecule B1, the binding result in assay [1], in assay [2] and in [3] was “no binding” in each case. Besides, the D-value in assay [4] and in assay [5] was 0 throughout. In addition, the “IC50 (read off the curve)” value was about 3 µg/mL in assay [6], about 0.5 µg/mL in [7] and about 0.6 µg/mL in [8]. The “EC50 (read off the curve)” value in assay [9] is about 0.1 microgr/ml.

B2: human anti-human CD1a monoclonal antibody CR2114 (antibody, human IgG1, kappa, V domains shown)
VH: EVQLVESGGGLVQPGGSLRLSCAASGFTFSSYSMNWVRQAPGKGLEWVSYISSSSSTIYYADSVKGRFTISRDNAKNSLYLQMNSLRDEDTAVYYCAKETWWQSFDYWGQGTLVTVSS
VL: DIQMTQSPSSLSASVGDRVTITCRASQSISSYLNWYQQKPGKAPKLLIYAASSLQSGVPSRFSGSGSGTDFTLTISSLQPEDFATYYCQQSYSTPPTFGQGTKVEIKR
notes: Fully human IgG1 kappa made from scFv SC02-114; unlabeled or biotinylated; also called 02-114
On to B2, for which the binding result in [1] was “no binding”; in assay [10], “binds”; in assay [2] it was “no binding”; in [3], “no binding”. The D-value in [4] and in assay [5] was 0 throughout.

B3: human anti-human CD1a monoclonal antibody CR2117 (antibody, human IgG1, kappa, V domains shown)
VH: EVQLVESGGGLVHPGGSLRLSCAGSGFTFSSYAMHWVRQAPGKGLEWVSAIGTGGGTYYADSVKGRFTISRDNAKNSLYLQMNSLRAEDTAVYYCARSTPWFSFDYWGQGTLVTVSS
VL: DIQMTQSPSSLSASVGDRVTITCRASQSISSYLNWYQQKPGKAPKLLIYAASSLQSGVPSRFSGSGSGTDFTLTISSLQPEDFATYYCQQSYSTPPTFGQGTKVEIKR
notes: Fully human IgG1 kappa made from scFv SC02-117; unlabeled or biotinylated; also called 02-117
Consider B3, for which the binding result in assay [1] is recorded as “no binding”; in assay [10], “binds”; in [2] it was “no binding”; in [3], “no binding”. Further, the D-value in assay [4] and in assay [5] was 0 each time. For the same molecule, the “EC50 (read off the curve)” value in assay [9] is about 2 microgr/ml.

B4: human anti-human CD1a monoclonal antibody CR2118 (antibody, human IgG1, kappa, V domains shown)
VH: EVQLVESGGGLVHPGGSLRLSCAGSGFTFSSYAMHWVRQAPGKGLEWVSAISTGGGTYYADSVKGRFTISRDNAKNSLYLQMNSLRAEDTAVYYCARSAWWLSFDSWGQGTLVTVSS
VL: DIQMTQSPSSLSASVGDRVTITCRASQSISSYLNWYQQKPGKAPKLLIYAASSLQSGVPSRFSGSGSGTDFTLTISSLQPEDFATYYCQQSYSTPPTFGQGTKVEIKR
notes: Fully human IgG1 kappa made from scFv SC02-118; unlabeled or biotinylated; also called 02-118
Turning to B4, the binding result is given as “no binding” in [1], “no binding” in assay [2], “no binding” in assay [3] and “binds” in assay [11]. In addition, the D-value in [4] and in assay [5] was 0 each time.

B5: human anti-human CD1a monoclonal antibody CR2115 (antibody, human IgG1, V domains shown)
VH: QVQLVQSGAEAKKPGASVKVSCKASGYTFTGYYMHWVRQAPGQGLEWMGWISAYNGNTNYAQKLQGRVTMTTDTSTSTAYMELRSLRSDDTAVYYCARSQMPSYFDYWGQGTLVTVSS
VL: SSELTQDPAVSVALGQTVRITCQGDSLRSYYASWYQQKPGQAPVLVIYGKNNRPSGIPDRFSGSSSGNTASLTITGAQAEDEADYYCNSRDSSGNHVVFGGGTKLTVLG
notes: Fully human IgG1 lambda made from scFv SC02-115; also called 02-115
With B5, the binding result in assay [1], in assay [2] and in [3] was “no binding” in each case. The molecule further had a D-value in [5] of 0.
